Assay results reported in patent US20200308257A1 (VISTERRA, published 2020).

Legend:
Test in all cases: cell-based or functional assay
[1] = target: T1, hemagglutinin (HA) of influenza A/PR/8/1934 (H1N1) (influenza A virus (H1N1), UniProt P03452 18-565)
[2] = target: hemagglutinin (HA) of influenza A/South Africa/80308/2017 (H3N2) (influenza A virus (H3N2))
[3] = target: hemagglutinin (HA) of influenza A/South Africa/80316/2017 (H3N2) (influenza A virus (H3N2))
[4] = target: hemagglutinin (HA) of influenza A/South Africa/80521/2017 (H3N2) (influenza A virus (H3N2))
[5] = target: hemagglutinin (HA) of influenza A/South Africa/80714/2017 (H3N2) (influenza A virus (H3N2))
[6] = target: hemagglutinin (HA) of influenza A/South Africa/80839/2017 (H3N2) (influenza A virus (H3N2))
[7] = target: hemagglutinin (HA) of influenza A/South Africa/80919/2017 (H3N2) (influenza A virus (H3N2))
[8] = target: hemagglutinin (HA) of influenza A/South Africa/81130/2017 (H3N2) (influenza A virus (H3N2))
[9] = target: hemagglutinin (HA) of influenza A/South Africa/81313/2017 (H3N2) (influenza A virus (H3N2))
[10] = target: hemagglutinin (HA) of influenza A/South Africa/80811/2017 (H1N1) (influenza A virus (H1N1))
[11] = target: hemagglutinin (HA) of influenza A/South Africa/80836/2017 (H1N1) (influenza A virus (H1N1))
[12] = target: hemagglutinin (HA) of influenza A/South Africa/80837/2017 (H1N1) (influenza A virus (H1N1))
[13] = target: hemagglutinin (HA) of influenza A/South Africa/80860/2017 (H1N1) (influenza A virus (H1N1))
[14] = target: hemagglutinin (HA) of influenza A/South Africa/0808006/2018 (H1N1) (influenza A virus (H1N1))
[15] = target: T1, hemagglutinin (HA) of influenza …; remark: listed apart in the source

T1 sequence (P03452 18-565 limits assumed): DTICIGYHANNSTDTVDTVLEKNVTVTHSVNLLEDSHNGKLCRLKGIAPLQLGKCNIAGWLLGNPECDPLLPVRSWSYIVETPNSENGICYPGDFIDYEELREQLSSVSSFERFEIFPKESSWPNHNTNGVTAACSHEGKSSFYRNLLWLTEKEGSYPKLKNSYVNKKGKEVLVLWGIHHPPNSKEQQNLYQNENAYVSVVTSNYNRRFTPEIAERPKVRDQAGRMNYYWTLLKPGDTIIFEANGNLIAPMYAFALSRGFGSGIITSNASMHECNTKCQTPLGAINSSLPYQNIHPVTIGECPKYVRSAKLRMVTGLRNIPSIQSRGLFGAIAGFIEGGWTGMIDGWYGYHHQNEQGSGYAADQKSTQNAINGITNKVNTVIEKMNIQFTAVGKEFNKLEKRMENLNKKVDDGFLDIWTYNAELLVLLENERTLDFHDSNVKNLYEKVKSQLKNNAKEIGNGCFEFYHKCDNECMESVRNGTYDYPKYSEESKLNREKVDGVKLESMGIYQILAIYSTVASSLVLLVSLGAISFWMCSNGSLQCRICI

B1: VIS410 (antibody, V domains shown)
VH: QVQLLETGGGLVKPGQSLKLSCAASGFTFTSYAMHWVRQPPGKGLEWVAVVSYDGNYKYYADSVQGRFTISRDNSKNTLYLQMNSLRAEDTAVYYCAKDSRLRSLLYFEWLSQGYFNPWGQGTTLTVSS
VL: DIQMTQSPSSLSASVGDRVTITCRSSQSITFDYKNYLAWYQQKPGKAPKLLIYWGSYLESGVPSRFSGSGSGTDFTLTISSLQPEDFATYYCQQHYRTPPSFGQGTKVEIK
EC50, antiviral activity against wild-type A/PR/8/1934 (H1N1) virus [1]: 7.4 nM
IC50, phenotypic IC50 assay (virus infection of MDCK cells) [2]: 0.91 µg/mL
IC50, phenotypic IC50 assay (virus infection of MDCK cells) [3]: 0.57 µg/mL
IC50, phenotypic IC50 assay (virus infection of MDCK cells) [4]: 1.09 µg/mL
IC50, phenotypic IC50 assay (virus infection of MDCK cells) [5]: 0.13 µg/mL
IC50, phenotypic IC50 assay (virus infection of MDCK cells) [6]: 0.41 µg/mL
IC50, phenotypic IC50 assay (virus infection of MDCK cells) [7]: 2.55 µg/mL
IC50, phenotypic IC50 assay (virus infection of MDCK cells) [8]: 1 µg/mL
IC50, phenotypic IC50 assay (virus infection of MDCK cells) [9]: 1.38 µg/mL
IC50, phenotypic IC50 assay (virus infection of MDCK cells) [10]: 0.38 µg/mL
IC50, phenotypic IC50 assay (virus infection of MDCK cells) [11]: 0.73 µg/mL
IC50, phenotypic IC50 assay (virus infection of MDCK cells) [12]: 0.25 µg/mL
IC50, phenotypic IC50 assay (virus infection of MDCK cells) [13]: 0.26 µg/mL
IC50, phenotypic IC50 assay (virus infection of MDCK cells) [14]: 0.42 µg/mL
IC50 (µg/mL), baloxavir-sensitive A/Puerto Rico/8/1934_H1N1 WT virus [15]: 0.3 µg/mL
